Amyloid nucleation score data for 140 substances are collected here from the supplement of paper PMC12042874.

± gives the uncertainty stated by the source.

This series in a line: amyloid nucleation score (Sup35N fusion, yeast selection) (log enrichment); library NNK1; higher = more nucleation; inactive = no reads after selection. The method, boiled down: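 Sup35N was fused to peptides of 20 random codons and expressed in psi-negative yeast, which were induced with 100 μM copper sulfate for 24 hours and then grown on medium lacking adenine and uracil for 7 days at 30°C. Plasmid inserts from input and output were sequenced on Illumina. The nucleation score is the DiMSum log enrichment of output over input reads, centred on the mode score of non-aggregating sequences. Sequences with under 100 input reads were left out, and random libraries had three technical output replicates.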
Regarding FYDPALMSITNSD, the amyloid nucleation score was 1.73 ± 0.15.

With LLFFGYYAFDHICYAEYLSC, the amyloid nucleation score came to 2.71 ± 0.14. DGAYWELSY came in with an amyloid nucleation score of -0.506 ± 0.27. The substance LISGKYLYSPTALLDHIL came in with an amyloid nucleation score of 0.484 ± 0.68. On to ETLSSFI, for which the amyloid nucleation score was determined as 0.032 ± 0.28. The result for ELLCLNL reads -0.83 ± 0.73; that for QFSAIIMSLSLLWSFMCAWE, -0.217 ± 0.55. ESLFPVCGEMTVTCPLSPTE gave an amyloid nucleation score of 0.423 ± 1.4. FKGQSVCFDLVGWFEVLCQG had an amyloid nucleation score of -0.381 ± 0.85.

With NNRIRRGGSVSVVMTVCDMD, the amyloid nucleation score was determined as 1.81 ± 0.34. WNSVVHINSVNYCV returned an amyloid nucleation score of 6.732 ± 0.059. The result for PLMWS reads 0.251 ± 0.29; that for CNLIYCTFDYLNFWDYYTID, 6.64 ± 0.054; that for HCVRI, 1.4 ± 0.6.

In the case of TSALWEVLW, the amyloid nucleation score was 0.191 ± 0.58. In turn, TSDNGKNAQGWGM gave an amyloid nucleation score of 0.145 ± 1. The result for YWSLYSPFYAIHSVILTICQ reads 0.496 ± 0.18; that for TGLDNHNICNRDTR, -0.034 ± 0.62; that for SYHRSSYYGLVNRMAFLVF, 2.94 ± 0.11. As for TKCGMGYISGISSPASGQYG, the amyloid nucleation score was found to be 0.767 ± 1. GETRGVPPNFFTPIIQLSSA: the amyloid nucleation score result is “inactive”. With VFTFLSMLRWVIFCNVVGVD, the amyloid nucleation score entry is “inactive”.

VAEWRSMNVGVGRATIEGLS: the amyloid nucleation score was 0.579 ± 0.28. With NCASLLGRFSDDLIDHLSVL the figure was 2.02 ± 0.62; with MSVCAIYRVRVFQCCFTCLH, -0.953 ± 0.68; with LYAHYRADVHEEKSLYYVIA, 0.101 ± 0.23. CHGCLGG displayed an amyloid nucleation score of -0.312 ± 1.5.

The substance RDYFTN returned an amyloid nucleation score of 0.789 ± 0.9. Turning to QHRVCLHCYKM, the amyloid nucleation score was -1.63 ± 2.7. With MPGNQYCSVSYLYQRSSGTV, the amyloid nucleation score amounted to 0.384 ± 0.45. For the substance TLTVSGAADIITFGSTIVVG, the amyloid nucleation score stood at 0.193 ± 1.5. Substance RDAIYYKICLAQPRSF had an amyloid nucleation score of -0.465 ± 0.38. Take GNDIEAIKHSGLLLSSWTMG: the amyloid nucleation score was -0.253 ± 1.2. For SSGDVPGFSPYGKWDFWWTC, the amyloid nucleation score is -0.151 ± 0.45. On to MVDTYRYVIISVYVMLPYYN, for which the amyloid nucleation score stood at 1.14 ± 0.97.

Consider MIGTYRWMLIMGLETVRKGG, for which the amyloid nucleation score result is “inactive”.

Turning to VTLSTAIVTNEFMSDISTGY, the amyloid nucleation score was -0.712 ± 0.52. Consider WIVRPSGCGVTTR, for which the amyloid nucleation score is -0.414 ± 0.69. NNLFYEIRM displayed an amyloid nucleation score of 1.92 ± 0.17.

Substance VYCSLPRFRHLTSSILVTII registered an amyloid nucleation score of -0.07 ± 1.4. KTFYLWW: the amyloid nucleation score stood at 3.04 ± 0.14. For SLQFLSKPHLLRESVSESVD, the amyloid nucleation score turned out to be 0.381 ± 0.35.

As for SNFLFRCSIWDDMGGKCRSK, the amyloid nucleation score entry was “inactive”. The result for WNDRSGDVSLPCS reads 0.027 ± 0.61. In the case of FGPMLHTLDLCWRGMWIS, the amyloid nucleation score was -1.56 ± 2.7. Turning to SCQIGLPVLTYRTATVGHKS, the amyloid nucleation score turned out to be 0.06 ± 1. The result for HYQERC reads -0.604 ± 0.34; that for HYRRVTVMCPLRVFVYAPKT, 5.61 ± 0.094; that for GTNYYSSGML, 0.114 ± 0.35. The result for KCFAFRSLAHIASTCGWCLN reads 2.4 ± 0.31. Regarding YMGPVV, the amyloid nucleation score is -0.313 ± 0.33. KSYSMMMSMMGNRMWVKRLV showed an amyloid nucleation score of -0.02 ± 0.5.

Take KRMVCDVCIDVMPSEFKQAG: the amyloid nucleation score worked out at 1.02 ± 0.76.

Regarding MHVQRVFTRCFKFSPQFVRH, the amyloid nucleation score is -1.11 ± 0.36. SYCMLNAVPVEMRLTLPGIR yielded an amyloid nucleation score of 0.389 ± 0.49.

On to SRIYLLSDRSVFLLLYNYYR, for which the amyloid nucleation score is -0.167 ± 0.41. Substance LWCCMTLTIASNDFLNIRCM displayed an amyloid nucleation score of 1.31 ± 0.15. Take RHMHSQFPAGLLIVGLRIVW: the amyloid nucleation score amounted to 0.915 ± 0.75. Turning to NKVHSSFSLGGLPEARASDE, the amyloid nucleation score was found to be 0.966 ± 0.66.

The substance SEYLASMAVTRFLGIGWMNS came in with an amyloid nucleation score of 0.548 ± 0.57. PSFMMFKSYTPQDFGMH displayed an amyloid nucleation score of -0.318 ± 0.99. EFIIVRRDGLGAVYSVTNAF showed an amyloid nucleation score of 1.08 ± 0.7. Take RQTGVYCKFNRSRDSILLSH: the amyloid nucleation score is -0.782 ± 0.86. Substance TFVCAFRGY yielded an amyloid nucleation score of 2.19 ± 0.098. The substance STSDMLVDSRQIVGEYTSDL came in with an amyloid nucleation score of -1.3 ± 1.7.

As for TDGIGYLGTWMWLWRGDGVR, the amyloid nucleation score was determined as 1.78 ± 0.53. As to PTCLSWGGVMRRDL, the amyloid nucleation score amounted to 0.341 ± 0.48.

In turn, LALHSNNQLFF displayed an amyloid nucleation score of 0.839 ± 0.81. On to APGWTVDTSPYSAGVCVVTP, for which the amyloid nucleation score was 0.099 ± 0.4. In turn, GFSWSNITKCGWACGSDGMK returned an amyloid nucleation score of 0.676 ± 0.45. With TVLFV, the amyloid nucleation score turned out to be 0.298 ± 0.38. TWWCV registered an amyloid nucleation score of -0.285 ± 0.27. The result for LVQMLTVDCATEKLHLAILS reads 0.567 ± 0.64; that for NLCSFFMFTIILGGNVGTFM, 7.208 ± 0.044. Consider LCLRLCPLMVWSCVLERWVS, for which the amyloid nucleation score is -1.78 ± 2.7. AKLMGCYMQRSICITRVPFL: the amyloid nucleation score was 0.702 ± 0.51. As for MKVYHSTQEVLWGQGGLLTR, the amyloid nucleation score is -0.116 ± 0.42. PLAHLSRLEESYWPSQTHPS showed an amyloid nucleation score of 0.091 ± 0.54.

As for VVMMWDI, the amyloid nucleation score entry is “inactive”. LPVLLSFVSYGS registered an amyloid nucleation score of -0.162 ± 0.34. NKAVKLQSDPMGALC gave an amyloid nucleation score of 0.701 ± 0.54.

Turning to VCCSATISTIVFSYFYTGKR, the amyloid nucleation score is 7.506 ± 0.053.

As to SRHSGGAYNIVTMVT, the amyloid nucleation score worked out at 0.517 ± 0.33. WFSAASGIMKEFSVG came in with an amyloid nucleation score of -0.277 ± 0.36. With RYILLVYVTCDRKVRAMKGV the figure was 0.883 ± 0.33; with DGEFRRDSSCVGVEERVVLV, 0.551 ± 1.2.

The substance PSWWVMEFTWIPQNGGLLSL came in with an amyloid nucleation score of 6.64 ± 0.082. In turn, SHVFAIRT registered an amyloid nucleation score of 0.574 ± 0.77. Substance IIITFLCNYFQGWNCLLVHF returned an amyloid nucleation score of 2.35 ± 0.1. The substance AFKNAAGMRGMTWISSEVGA registered an amyloid nucleation score of 0.145 ± 0.42.

The substance IQAKKDPTAESQRGCC returned an amyloid nucleation score of 0.197 ± 0.51. VMGFGTCVRKQCSNYLKGIE showed an amyloid nucleation score of 0.476 ± 0.63.

On to KFILTVPMANSATYTFACLD, for which the amyloid nucleation score entry is “inactive”. The result for SLAWSRMRCKFWSVSPSAFP reads -0.352 ± 0.49; that for MMLGSGFLCLLMYDGVRFLL, -0.839 ± 0.62; that for FCHVRTL, -0.97 ± 1.7. FISNIFKMKMATQSGGLGVR displayed an amyloid nucleation score of -0.789 ± 0.71. On to FVLERTGIRLLCL, for which the amyloid nucleation score turned out to be 0.363 ± 0.38. As for FGVSVLCSEWGTPRFVCWVN, the amyloid nucleation score was -0.6 ± 0.43. The substance MVGQYRYLSPYGW came in with an amyloid nucleation score of 0.724 ± 1.2.

RLFGLPKYCYVILFPVDVCH: the amyloid nucleation score was 0.132 ± 0.21. In turn, DGSCKLYVVFRPAVLGHGHS returned an amyloid nucleation score of 1.05 ± 0.85. With SPSKLGSE the figure was 0.903 ± 0.56. In turn, DLAWWMSCAHFMSMTRGLQR showed an amyloid nucleation score of 0.595 ± 0.36. CVYVSMLH registered an amyloid nucleation score of -0.483 ± 0.85. With RMTWQM the figure was -0.885 ± 2.1; with YPDNMWYLCMLCRGWMCETR, -0.644 ± 0.62; with CGCETDMGSA, “inactive”. Turning to HVDFQVASSDEDLIHLFLYH, the amyloid nucleation score turned out to be 0.258 ± 0.54.

The substance LYGSVKNIKRLPHCFMLCLC returned an amyloid nucleation score of 0.616 ± 0.36. Substance WHLSMRLDLPT returned an amyloid nucleation score of 0.363 ± 0.65.

The substance FGFTGLTSW registered an amyloid nucleation score of -0.146 ± 1.4. On to STVWLSVGALAFARASGRRA, for which the amyloid nucleation score worked out at 3.74 ± 0.12.

CVNFFGCHCVHN returned an amyloid nucleation score of 7.735 ± 0.069. Turning to LFFGSTLMDATFGYGDSDCN, the amyloid nucleation score was 0.828 ± 0.62. With ICELIWGGRRSNGINGSTSG the figure was 0.741 ± 0.23.

The substance KSSTKGLISRGRFGYRVPSN came in with an amyloid nucleation score of -0.215 ± 1.7. Regarding GMARHEMRGGMHSTLLRLTA, the amyloid nucleation score was 0.735 ± 0.91. In turn, APSTDGMNMPTNGDRTPTLW came in with an amyloid nucleation score of 0.245 ± 0.42.

The substance HRVLYIPALDNVVCRDIWRV had an amyloid nucleation score of 1.29 ± 0.46. Consider IFYFYFCRYLSIQMVILGVQ, for which the amyloid nucleation score was found to be 0.983 ± 0.33. Substance YWCRSSLFRFMGLRYESRMY displayed an amyloid nucleation score of 0.359 ± 0.51.

Regarding YRGTLDNKMGFYIGYHHDRS, the amyloid nucleation score is -0.322 ± 0.56. Consider GCAQRKVAPWNRGLRQ, for which the amyloid nucleation score is -0.501 ± 0.62. With TLSFIRAYSVPHQVLRMESL, the amyloid nucleation score is 0.87 ± 0.64.

With DHFKKILGLCKSGCRVVERE, the amyloid nucleation score was 0.759 ± 0.41. For SWKPVLSREDFWTNHKGRPM, the amyloid nucleation score was 0.565 ± 0.45.

Consider LHETFVCR, for which the amyloid nucleation score was -0.267 ± 0.58. RSPFWRDVKNKITVSPIFAN gave an amyloid nucleation score of 0.945 ± 0.61.

Regarding VLDYGIVFNVVLLICIRTTE, the amyloid nucleation score worked out at 4.87 ± 0.064. As to LRFVTINRRSVSVYSSNTKS, the amyloid nucleation score result is “inactive”. With PNVFFFLISMIFSDFLVGSG the figure was 0.192 ± 1.2; with AHGRHDLRWCLRSRDSMWRA, 1.2 ± 0.53; with FNMENVGKSQSRAAVRVRH, 0.961 ± 0.42. For YFHPLTKLI, the amyloid nucleation score is -0.288 ± 0.82. Substance SELPVTGWLLIFLGELTWS registered an amyloid nucleation score of -0.88 ± 1.3. As to DLVCDFYVGLV, the amyloid nucleation score was 2.42 ± 0.085. In the case of IVNVSCITNVDGGSLADSAV, the amyloid nucleation score was 2.48 ± 0.25. On to VYCCLNFLAFNFSWV, for which the amyloid nucleation score amounted to 6.308 ± 0.063. The result for DIATCRIWTVCTCQMCFISV reads 6.17 ± 0.089.
